Measured values from the supplement of paper PMC10567573.

B1: NCF4 (parent)
chain: FGPDSKSSALACTLPTLPAKVYVG
B2: PPEF2 (parent)
chain: DHSGFISLDEFRQTWKLFSSHMNI

Variants of: B1
Test: protein stability index of a GFP-peptide fusion (GPS, HEK-293T) (PSI 1-6); higher = more stable
Settings: c terminus: a fixed tail appended
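Further: lentivirally expressed fusions sorted by FACS into six bins by GFP to DsRed ratio, PSI derived from sequencing read proportions per bin multiplied by bin number.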

First: FGPDSKSSALACTLPTLPAKVYVS [G24S]
Second: FGPDSKSSALACTLPTLPAKVYVT [G24T]
The protein stability index of the first is higher: 1.97 for the first, 1.9 for the second.

First: FGPDSKSSALACTLPTLPAKVYVI [G24I]
Second: FGPDSKSSALACTLPTLPAKVYVW [G24W]
The protein stability index of the first is lower: 1.74 for the first, 2.29 for the second.

Compared with FGPDSKSSALACTLPTLPAKVYVH [G24H], FGPDSKSSALACTLPTLPAKVYVP [G24P] is lower in protein stability index: 2.08 for the first, 1.68 for the second.

First: FGPDSKSSALACTLPTLPAKVYVF [G24F]
Second: FGPDSKSSALACTLPTLPAKVYVY [G24Y]
The protein stability index of the first is higher: 2.92 for the first, 1.75 for the second.

Compared with FGPDSKSSALACTLPTLPAKVYVN [G24N], FGPDSKSSALACTLPTLPAKVYVD [G24D] is higher in protein stability index: 1.85 for the first, 3.36 for the second.

First: FGPDSKSSALACTLPTLPAKVYVM [G24M]
Second: FGPDSKSSALACTLPTLPAKVYVV [G24V]
The protein stability index of the first is lower: 1.63 for the first, 1.84 for the second.

First: FGPDSKSSALACTLPTLPAKVYVQ [G24Q]
Second: FGPDSKSSALACTLPTLPAKVYVL [G24L]
The protein stability index of the first is lower: 2.22 for the first, 2.56 for the second.

Compared with FGPDSKSSALACTLPTLPAKVYVR [G24R], FGPDSKSSALACTLPTLPAKVYVE [G24E] is higher in protein stability index: 2.29 for the first, 2.55 for the second.

Variant FGPDSKSSALACTLPTLPAKVYVK [G24K] has a protein stability index of 2.88.

Variants of: B2
Test: as above
Settings: c terminus: a fixed tail appended

First: DHSGFISLDEFRQTWKLFSSFMNI [H21F]
Second: DHSGFISLDEFRQTWKLFSSTMNI [H21T]
The protein stability index of the first is higher: 2.27 for the first, 2.09 for the second.

Going from DHSGFISLDEFRQTWKLFSSHQNI [M22Q] to DHSGFISLDEFRQTWKLFSSHKNI [M22K], the protein stability index rises from 1.88 to 2.1.

First: DHSGFISLDEFRQTWKLFSSHRNI [M22R]
Second: DHSGFISLDEFRQTWKLFSSHPNI [M22P]
The protein stability index of the first is lower: 1.91 for the first, 2.6 for the second.

Going from DRSGFISLDEFRQTWKLFSSHMNI [H2R] to DLSGFISLDEFRQTWKLFSSHMNI [H2L], the protein stability index falls from 1.34 to 1.25.

Going from DDSGFISLDEFRQTWKLFSSHMNI [H2D] to DHSGFHSLDEFRQTWKLFSSHMNI [I6H], the protein stability index falls from 1.86 to 1.71.

First: DHSGFESLDEFRQTWKLFSSHMNI [I6E]
Second: DHSGFFSLDEFRQTWKLFSSHMNI [I6F]
The protein stability index of the first is higher: 1.66 for the first, 1.03 for the second.

Going from DHSGFWSLDEFRQTWKLFSSHMNI [I6W] to DHSGFDSLDEFRQTWKLFSSHMNI [I6D], the protein stability index falls from 1.82 to 1.62.

Going from DHSGFISLDEFVQTWKLFSSHMNI [R12V] to DHSGFISLDEFTQTWKLFSSHMNI [R12T], the protein stability index rises from 2.88 to 2.98.

Compared with DHSSFISLDEFRQTWKLFSSHMNI [G4S], DHSLFISLDEFRQTWKLFSSHMNI [G4L] is higher in protein stability index: 1.51 for the first, 2.95 for the second.

Compared with DHSKFISLDEFRQTWKLFSSHMNI [G4K], DHSGFISLDEFRQTWYLFSSHMNI [K16Y] is higher in protein stability index: 1.31 for the first, 3.45 for the second.

Going from DHSGFISLDEFRQTWRLFSSHMNI [K16R] to DHSGFISLDEFRQTWELFSSHMNI [K16E], the protein stability index falls from 2.02 to 1.73.

First: DHSGFISLDEFRQTWHLFSSHMNI [K16H]
Second: DHSGFISLDEFRQTWNLFSSHMNI [K16N]
The protein stability index of the first is higher: 1.74 for the first, 1.69 for the second.

First: DHSGFISLDEFRGTWKLFSSHMNI [Q13G]
Second: DHSGFISLDEFRWTWKLFSSHMNI [Q13W]
The protein stability index of the first is lower: 1.96 for the first, 2.52 for the second.

Compared with DHSGFISLDEFRRTWKLFSSHMNI [Q13R], DHSGFISLDEFRQTEKLFSSHMNI [W15E] is lower in protein stability index: 2.03 for the first, 1.96 for the second.

Going from DHSGFISLDEFRQTGKLFSSHMNI [W15G] to DHSGFISLDEFRQTVKLFSSHMNI [W15V], the protein stability index rises from 1.84 to 2.1.

Compared with DHSGFISLDEFRQTWKLFSGHMNI [S20G], DHSGFISLDEFRQTWKLFSMHMNI [S20M] is lower in protein stability index: 2.92 for the first, 2.81 for the second.

Going from DHSGFISLDEFRQTWKLFSKHMNI [S20K] to DHSGPISLDEFRQTWKLFSSHMNI [F5P], the protein stability index rises from 1.81 to 2.12.

Going from DHSGYISLDEFRQTWKLFSSHMNI [F5Y] to DHSGDISLDEFRQTWKLFSSHMNI [F5D], the protein stability index falls from 2.35 to 1.41.

Going from DHSGFISLNEFRQTWKLFSSHMNI [D9N] to DHSGFISLQEFRQTWKLFSSHMNI [D9Q], the protein stability index rises from 1.51 to 2.2.

Compared with DHSGFISLPEFRQTWKLFSSHMNI [D9P], DHSGFISLLEFRQTWKLFSSHMNI [D9L] is higher in protein stability index: 1.21 for the first, 3.39 for the second.

Going from DHSGFISLCEFRQTWKLFSSHMNI [D9C] to DHFGFISLDEFRQTWKLFSSHMNI [S3F], the protein stability index falls from 2.73 to 2.23.

First: DHPGFISLDEFRQTWKLFSSHMNI [S3P]
Second: DHIGFISLDEFRQTWKLFSSHMNI [S3I]
The protein stability index of the first is higher: 1.91 for the first, 1.84 for the second.

Compared with DHSGFISKDEFRQTWKLFSSHMNI [L8K], DHSGFISCDEFRQTWKLFSSHMNI [L8C] is lower in protein stability index: 1.97 for the first, 1.71 for the second.

Going from DHSGFISLDEWRQTWKLFSSHMNI [F11W] to DHSGFISLDEIRQTWKLFSSHMNI [F11I], the protein stability index rises from 1.64 to 1.79.

Going from DHSGFISLDECRQTWKLFSSHMNI [F11C] to DHSGFISLDPFRQTWKLFSSHMNI [E10P], the protein stability index rises from 1.94 to 2.26.

First: DHSGFISLDFFRQTWKLFSSHMNI [E10F]
Second: DHSGFISLDEFRQTWKYFSSHMNI [L17Y]
The protein stability index of the first is lower: 1.72 for the first, 2.03 for the second.

Going from DHSGFISLDEFRQTWKKFSSHMNI [L17K] to DHSGFISLDEFRQTWKTFSSHMNI [L17T], the protein stability index rises from 1.81 to 1.88.

Going from DHSGFISLDEFRQTWKNFSSHMNI [L17N] to DHSGFISLDEFRQTWKVFSSHMNI [L17V], the protein stability index falls from 1.87 to 1.36.

Going from DHSGFISLDEFRQTWKLCSSHMNI [F18C] to DHSGFISLDEFRQTWKLKSSHMNI [F18K], the protein stability index rises from 2.02 to 2.21.

First: DHSGFISLDEFRQTWKLDSSHMNI [F18D]
Second: DHSGFISLDEFRQTWKLFPSHMNI [S19P]
The protein stability index of the first is higher: 2.57 for the first, 1.82 for the second.

Going from DHSGFISLDEFRQTWKLFSSHMRI [N23R] to DHSGFISLDEFRQTWKLFSSHMLI [N23L], the protein stability index rises from 1.31 to 2.3.

First: DHSGFISLDEFRQTWKLFSSHMKI [N23K]
Second: DHSGFISLDEFRQTWKLFSSHMWI [N23W]
The protein stability index of the first is lower: 1.96 for the first, 2.08 for the second.

First: DHSGFIRLDEFRQTWKLFSSHMNI [S7R]
Second: DHSGFIWLDEFRQTWKLFSSHMNI [S7W]
The protein stability index of the first is higher: 2.1 for the first, 2.08 for the second.

First: DHSGFIFLDEFRQTWKLFSSHMNI [S7F]
Second: RHSGFISLDEFRQTWKLFSSHMNI [D1R]
The protein stability index of the first is higher: 2.52 for the first, 1.95 for the second.

First: SHSGFISLDEFRQTWKLFSSHMNI [D1S]
Second: VHSGFISLDEFRQTWKLFSSHMNI [D1V]
The protein stability index of the first is higher: 4.12 for the first, 2.56 for the second.

Going from NHSGFISLDEFRQTWKLFSSHMNI [D1N] to DHSGFISLDEFRQDWKLFSSHMNI [T14D], the protein stability index falls from 3.49 to 1.71.

Going from DHSGFISLDEFRQNWKLFSSHMNI [T14N] to DHSGFISLDEFRQYWKLFSSHMNI [T14Y], the protein stability index falls from 1.91 to 1.49.

Compared with DHSGFISLDEFRQTWKLFSSHMNS [I24S], DHSGFISLDEFRQTWKLFSSHMNN [I24N] is higher in protein stability index: 1.58 for the first, 1.8 for the second.

DHSGFISLDEFRQTWKLFSSHMNF [I24F] gave a protein stability index of 1.9.
